In paper PMC8345930, “Quaternary Structure and Hetero-Oligomerization of Recombinant Human Small Heat Shock Protein HspB7 (cvHsp)” (International Journal of Molecular Sciences, 2021):
Substitutions are numbered along the chain they refer to. Names may count otherwise.

B1: Cys-mutant of HspB8 (C10S/C99S/C195S/N138C) (natural protein, human, UniProt Q9UJY1 1-196, looked up)
chain: MADGQMPFSSHYPSRLRRDPFRDSPLSSRLLDDGFGMDPFPDDLTASWPDWALPRLSSAWPGTLRSGMVPRGPTATARFGVPAEGRTPPPFPGEPWKVSVNVHSFKPEELMVKTKDGYVEVSGKHEEKQQEGGIVSKCFTKKIQLPAEVDPVTVFASLSPEGLLIIEAPQVPPYSTFGESSFNNELPQDSQEVTST
notes: HspB8, human, with the four mutations C10S/C99S/C195S/N138C; single Cys in the β7 strand at the position homologous to Cys137 of HspB1; also called HspB8 Cys; HspB8 Cys^Ox
B2: recombinant human small heat shock protein HspB7 (cvHsp), wild type, untagged (natural protein)
chain: not shown
notes: HspB7 (cvHsp), human; full copy recloned from Addgene #63108 into pET23b(+) at NdeI and XhoI; single Cys126; calculated monomer weight 18.6 kDa; HspB7-D (small oligomers, probably dimers) and HspB7-L (mostly large oligomers) are two oligomeric preparations of the same construct; the assays tell them apart; also called cardiovascular Hsp; HspB7-D; source: E. coli Rosetta2 (DE3) pLysS, purified …
B3: Cys-mutant of HspB6 (C46S/E116C) (natural protein, human, UniProt O14558 1-160, looked up)
chain: MEIPVPVQPSWLRRASAPLPGLSAPGRLFDQRFGEGLLEAELAALSPTTLAPYYLRAPSVALPVAQVPTDPGHFSVLLDVKHFSPEEIAVKVVGEHVEVHARHEERPDEHGFVARCFHRRYRLPPGVDPAAVTSALSPEGVLSIQAAPASAQAPPPAAAK
notes: HspB6, human, with the double mutation C46S/E116C; single Cys in the β7 strand at the position homologous to Cys137 of HspB1; also called HspB6 Cys; HspB6 Cys^Ox
B4: wild-type HspB6 (natural protein, human, UniProt O14558 1-160, looked up)
chain: B3 chain with S46C, C116E
notes: HspB6, human, full-size wild type; The abstract says that the wild-type HspB6 was used in the ELISA
B5: ΔSer mutant of HspB7 (lacking the polySer sequence, residues 17–29) (natural protein)
chain: not shown
notes: source: E. coli Rosetta2 (DE3) pLysS, purified
B6: Δ13 mutant of HspB7 (lacking the first 13 residues) (domain or fragment)
chain: not shown
notes: HspB7 (cvHsp), human, lacking the first 13 residues; made by PCR from the pET23b(+) HspB7 plasmid (forward primer with an NdeI site, ATG before the codon of residue 14); The printed forward primer places a start codon (Met) directly before residue 14; source: E. coli Rosetta2 (DE3) pLysS, purified
B7: HspB7 with Cys126 modified by iodoacetamide (natural protein)
chain: not shown
modifications: Cys126 modified by iodoacetamide
notes: HspB7 (cvHsp), human; full copy from Addgene #63108 in pET23b(+); the single SH group (Cys126) modified by iodoacetamide; Same construct as m1, chemically modified at Cys126; also called SH Mod HspB7-L

Columns and labels:
[1] = molecular target: the molecule itself; assay: cross-linking; disulfide cross-linking: reduced proteins alone or in equimolar mixture (15 µM each), 1 h at 42 °C, dialysed overnight at 37 °C against 50 mM Tris-HCl pH 8.0, 50 mM KCl, 0.1 mM PMSF; read by SDS-PAGE (HspB8) or urea gel electrophoresis (HspB6)
[2] = molecular target: the molecule itself; assay: SEC; HspB7-D preparation (flow-through of phenyl sepharose, Fraction 1); analytical Superdex 200 Increase 10/30 GL, 50 mM phosphate pH 7.4, 150 mM NaCl; 20, 50 or 100 μg loaded
[3] = molecular target: B2; assay: SEC; oxidised (disulfide cross-linked) proteins alone or in equimolar mixture on Superdex 200 Increase GL 10/300; profile of the mixture compared with the arithmetic sum of the isolated proteins; settings: both partners purified
[4] = molecular target: B2; assay: ELISA; sandwich: plate coated with monoclonal mouse anti-HspB6 antibody (clone 20-6) as capture; HspB6, HspB7 or their equimolar mixture added (25-400 ng of each protein per well), 1 h; HspB7 detected by rabbit polyclonal anti-HspB7 and HRP-conjugated anti-rabbit antibodies; settings: both partners purified
[5] = molecular target: the molecule itself; assay: SEC; Δ13 and ΔSer deletion mutants of HspB7; analytical Superdex 200 Increase 10/30 GL, 50 mM phosphate pH 7.4, 150 mM NaCl
[6] = molecular target: the molecule itself; assay: SEC; HspB7-L (0.6 mg/mL) reduced with 3 mM DTT, Cys126 modified with 8 mM iodoacetamide, then analytical SEC on Superdex 200 Increase

Binder: B1
binding result [1]: binds

Binder: B2
stoichiometry N [2]: ~2

Binder: B3
binding result [3]: binds | binding result [1]: binds

Binder: B4
binding result [4]: binds

Binder: B5
binding result [5]: binds

Binder: B6
binding result [5]: binds

Binder: B7
binding result [6]: binds
